The target in experiment [1] is T1, human CD40 (hCD40) expressed on cells (human, UniProt P25942 21-277). Briefly: cell-based or functional assay.
Experiment [2] has as its target T1, human CD40 (hCD40) expressed on cells. Briefly: cell-based or functional assay. The source holds these as a separate data set.
Experiment [3] shares this target. Briefly: cell-based or functional assay. The source holds these as a separate data set.
Experiment [4] shares this target. Briefly: cell-based or functional assay. This is another data set of the same source.
For experiment [5] the target is unchanged. Briefly: cell-based or functional assay. The source holds these as a separate data set.
Experiment [6] has the same target. Briefly: cell-based or functional assay. This is another data set of the same source.
Experiment [7] shares this target. Briefly: flow cytometry, Ramos 2G6.4C10 cells. As to the method: (§1) Cells were washed with 2% FBS (w/v) in 1×PBS (flow cytometry staining buffer) by centrifugation with benchtop Centrifuge 5810R (Eppendorf®, Hamburg, Germany). Cells were incubated for 30 minutes at 4° C. with serial dilutions of following antibodies ranging from 1.7 pM to 100 nM in flow cytometry staining buffer (1) anti-CD40×CD40 bispecific antibodies, or (2) parental anti-CD40 antibodies (bivalent antibodies comprising 2 fragment antigen-binding [Fab] arms identical to one of the two anti-CD40 Fab of bispecific anti-CD40×CD40 antibodies), or (3) anti-CD40×Irrelevant antibodies (bivalent antibodies that incorporate one Fab arm identical to one of anti-CD40 Fab of anti-CD40×CD40 antibodies and another Fab arm specific to an irrelevant antigen, i.e. birch pollen main allergen Bet v1), or (4) human IgG4 isotype control antibodies with Fc mutation. After washing, cell bound antibodies were detected with 2.5 μg/ml Allophycocyanin (APC)-conjugated goat anti-human IgG antibody specific for the Fcγ fragment (Jackson Immunoresearch, West Grove, PA) for 30 minutes at 4° C. Cells were washed and subsequently fixed with 50% solution of Cytofix™ Fixation Buffer (BD, Franklin Lakes, NJ) in flow cytometry staining buffer for 20 minutes at room temperature. Cells were washed and resuspended in flow cytometry staining buffer and stored at 4° C. for downstream flow cytometry analysis.
(§2) Acquisition of fluorescence signals were recorded on the ZE5 Cell Analyzer (Bio-Rad, Hercules, CA) according to the manufacturer's recommended procedure and flow cytometry data analysis was performed using the open-source R packages flowCore, flowStats, flowDensity, ggCyto, and flowAI. Multiplexed samples were deconvoluted and individual cell populations were identified based on their unique CellTrace™ fluorescence signature. APC Median Fluorescence intensity (MFI) was recorded to indicate the binding intensity of each antibody over a range of concentrations. Antibodies with MFI greater than 1500 at the highest tested concentration (100 nM) were classified as specific binders. In addition, direct binding signals (APC MFI) were analyzed as a function of the antibody concentration and data were fitted with a sigmoidal (four-parameter logistic) dose-response model using GraphPad Prism™ software.
A general note: Flow cytometry measures light scatter and fluorescence of single cells or particles in a stream.

For experiment [8] the target is unchanged. Briefly: flow cytometry, HEK293/D9/hCD40 cells. As to the method:
as §1, §2

Experiment [9] concerns the target T2, Macaca fascicularis CD40 (mfCD40) expressed on HEK293/D9/mfCD40 cells (Macaca fascicularis, UniProt G7PG38 21-278).
T2 construct: whole, on cells; also called monkey CD40
Briefly: flow cytometry, HEK293/D9/mfCD40 cells. As to the method:
as §1, §2

The target in experiment [10] is T3, human CD40 extracellular domain expressed with a C-terminal myc-myc-hexahistidine tag (human).
T3 construct: also called hCD40-MMH; hCD40-mmH
Briefly: ELISA blocking of 40 nM hCD40-mmH binding to 9His-hCD40L. The text has this: An ELISA-based blocking assay was developed to determine the ability of C40×CD40 bispecific antibodies to block the binding of the hCD40 monomer to plate-coated hCD40L. The recombinant human CD40-mmH protein (hCD40-MMH; REGN3094; SEQ ID NO: 53) used in the experiments comprises a portion of the human CD40 extracellular domain (amino acids P20-R193) fused to 2×Myc peptide and 6×histadine (SEQ ID NO: 1110) at the C-terminus of human CD40, and the human CD40L (accession #NM_000074.2) with amino acids E108-L261 of the extracellular domain with 9×His-2×(SGGG)-IGER at the N-terminus (9His-hCD40L) was commercially obtained from Biolegend.
In the blocking assay, 9His-hCD40L was passively absorbed at a concentration of 5 μg/mL in PBS on a 96-well microtiter plate overnight at 4° C. […] In a separate 96-well microtiter plate, a fixed amount of 40 nM hCD40-mmH was pre-mixed with one of the following antibodies, at concentrations ranging from 977 pM to 1 μM in PBS+0.5% BSA: (1) CD40×CD40 bispecific antibodies (REGN16431, REGN16432, REGN16634, and REGN16335); (2) parental CD40 mAbs (bivalent antibodies comprising 2 fragment antigen-binding [Fab] arms identical to one of anti-CD40 Fab of CD40×CD40 antibodies); (3) CD40×Irrelevant antibodies (bivalent antibodies that incorporate one Fab arm identical to one of anti-CD40 Fab of CD40×CD40 antibodies and another Fab arm specific to an irrelevant antigen); and (4) human IgG4 with Fc mutation isotype control antibodies (REGN7540 and REGN4513). The fixed concentration of hCD40-mmH was selected to be near the concentration (EC₅₀ value) that generated 50% of the maximal binding to the plate-adhered 9His-hCD40L. After one-hour incubation, the antibody-antigen complexes were transferred to the microtiter plate coated with 9His-hCD40L. After one hour incubation at room temperature, the plates were washed, and plate-bound hCD40-mmH protein was detected with horseradish peroxidase (HRP) conjugated goat anti-c-Myc antibody. The plates were then developed using TMB substrate solution (BD Biosciences) according to the manufacturer's recommended procedure and the absorbance at 450 nm (OD₄₅₀) was measured on a SpectraMax i3×plate reader.
In general terms: In an ELISA, binding on a coated surface is turned into a signal by an enzyme label.

By EC50 is commonly meant the concentration needed to bring the measured effect to its halfway point. Low readings indicate higher potency in that assay, high ones lower potency in that assay. What is called IC50 is the concentration that inhibits the measured activity by half.

T3 sequence (chain, as listed by the source limits assumed): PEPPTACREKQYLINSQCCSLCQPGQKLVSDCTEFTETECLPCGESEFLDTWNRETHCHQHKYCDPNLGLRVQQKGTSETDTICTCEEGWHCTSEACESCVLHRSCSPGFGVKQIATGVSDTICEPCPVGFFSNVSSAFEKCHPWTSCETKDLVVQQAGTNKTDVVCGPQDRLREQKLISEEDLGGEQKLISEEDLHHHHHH
T1 sequence (P25942 21-277): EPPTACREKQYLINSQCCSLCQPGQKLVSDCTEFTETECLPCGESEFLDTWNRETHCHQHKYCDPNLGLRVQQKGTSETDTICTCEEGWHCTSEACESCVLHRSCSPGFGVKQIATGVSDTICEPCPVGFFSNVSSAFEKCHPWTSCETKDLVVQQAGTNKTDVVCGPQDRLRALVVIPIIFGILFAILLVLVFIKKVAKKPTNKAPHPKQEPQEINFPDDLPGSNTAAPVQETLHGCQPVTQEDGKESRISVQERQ

B1: REGN20484 (bispecific antibody, human IgG4 S228P, kappa)
heavy 1: EVQLVESGGGLVQPGGSLRLSCAASGFTFGSYGMAWVRQAPGKGLEWVSAISGSGDYTNYADSVKRRFTISRDNSKNTLYLQMSSLRAEDTAVYYCAKEKTGTTGYLYSGMDVWGQGTTVTVSSASTKGPSVFPLAPCSRSTSESTAALGCLVKDYFPEPVTVSWNSGALTSGVHTFPAVLQSSGLYSLSSVVTVPSSSLGTKTYTCNVDHKPSNTKVDKRVESKYGPPCPPCPAPGGGGPSVFLFPPKPKDTLMISRTPEVTCVVVDVSQEDPEVQFNWYVDGVEVHNAKTKPREEQFNSTYRVVSVLTVLHQDWLNGKEYKCKVSNKGLPSSIEKTISKAKGQPREPQVYTLPPSQEEMTKNQVSLTCLVKGFYPSDIAVEWESNGQPENNYKTTPPVLDSDGSFFLYSRLTVDKSRWQEGNVFSCSVMHEALHNHYTQKSLSLSLGK
heavy 2: EVQLVESGGGLVQPGGSLRLSCAASGFTFSSYAMNWVRQAPGKGLEWVSIISGTIGKTYYADSVKGRFTISRDNSKNTLYLQMNSLRGEDTAVYYCAKDTERDITGSPFDYWGQGTLVTVSSASTKGPSVFPLAPCSRSTSESTAALGCLVKDYFPEPVTVSWNSGALTSGVHTFPAVLQSSGLYSLSSVVTVPSSSLGTKTYTCNVDHKPSNTKVDKRVESKYGPPCPPCPAPGGGGPSVFLFPPKPKDTLMISRTPEVTCVVVDVSQEDPEVQFNWYVDGVEVHNAKTKPREEQFNSTYRVVSVLTVLHQDWLNGKEYKCKVSNKGLPSSIEKTISKAKGQPREPQVYTLPPSQEEMTKNQVSLTCLVKGFYPSDIAVEWESNGQPENNYKTTPPVLDSDGSFFLYSRLTVDKSRWQEGNVFSCSVMHEALHNRFTQKSLSLSPGK
light: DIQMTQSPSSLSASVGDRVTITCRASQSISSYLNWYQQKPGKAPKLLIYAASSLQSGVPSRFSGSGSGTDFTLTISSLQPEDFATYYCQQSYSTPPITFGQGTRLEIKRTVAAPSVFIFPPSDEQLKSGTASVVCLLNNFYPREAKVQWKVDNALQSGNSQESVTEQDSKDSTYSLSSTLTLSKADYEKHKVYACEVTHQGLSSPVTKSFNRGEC
For the molecule B1, in experiment [1], the “% max blockade relative to no mAb, IL-6, assay #2 donor 1” value came out at 89% and the “% max blockade relative to no mAb, IL-6, assay #2 donor 2” value came out at 88.1%. Also, in [2], the “% max blockade relative to no mAb, IL-10, assay #2 donor 1” value came to 87.1% and the “% max blockade relative to no mAb, IL-10, assay #2 donor 2” value amounted to 90.9%. For the same molecule, in [3], the “% max blockade relative to no mAb, TNFa, assay #2 donor 1” value is 61.9% and the “% max blockade relative to no mAb, TNFa, assay #2 donor 2” value is 52.3%.

B2: REGN17289 (antibody, V domains shown)
VH: EVQLVESGGGLVQPGGSLRLSCAASGFTFSSYAMNWVRQAPGKGLEWVSIISGTIGKTYYADSVKGRFTISRDNSKNTLYLQMNSLRGEDTAVYYCAKDTERDITGSPFDYWGQGTLVTVSS
VL: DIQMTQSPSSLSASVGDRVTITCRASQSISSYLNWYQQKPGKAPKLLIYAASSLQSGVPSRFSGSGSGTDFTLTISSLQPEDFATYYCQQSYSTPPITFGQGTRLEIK
notes: bivalent mAb with two Fab arms identical to the 30027 arm; also called Parental CD40 (30027)
As for B2, in experiment [4], the “EC50 (potentiation), 500 pM hCD40L, Ramos NFkB-luc” value came to 7.51e-12 M; the “Max % activation, no ligand, Ramos NFkB-luc” value was determined as 4%; the “Max % inhibition, 500 pM hCD40L, Ramos NFkB-luc” value (“Max % inhibition, 500 pM hCD40L” for short) is -133%. Also, in experiment [5], the “IC50, 900 pM hCD40L, Raji NFkB-luc” value stood at 2.72e-11 M; the “Max % activation, no ligand, Raji NFkB-luc” value was 10%; the “Max % inhibition, 900 pM hCD40L, Raji NFkB-luc” value (“Max % inhibition, 900 pM hCD40L” below) came to 55%. Moreover, in experiment [6], the “EC50 (potentiation), 10 nM hCD40L, THP-1 NFkB-luc” value turned out to be 0.016 nM; the “Max % activation, no ligand, THP-1 NFkB-luc” value is 1%; the “Max % inhibition, 10 nM hCD40L, THP-1 NFkB-luc” value (“Max % inhibition, 10 nM hCD40L” for short) is -92%. Further, in experiment [7], the EC50 was 0.47 nM and the “MFI at 100 nM” value was determined as 2660 MFI. Further, in experiment [8], the concentration for a half-maximal effect (EC50) worked out at 0.76 nM and the “MFI at 100 nM” value worked out at 20500 MFI. Moreover, in experiment [9], the half-maximal effective concentration (EC50) was determined as 1.1 nM and the “MFI at 100 nM” value is 32900 MFI. The “% Blocking at 1 uM mAb” value in experiment [10] amounted to 10%.

B3: REGN17288 (antibody, V domains shown)
VH: QLQLQESGPGLVRPSETLSLTCSVSGASMNTNNYYWGWIRQPPGKGLEWIGSGYYNGNTYYNPSLKSRVTISVDTSKNQFSLKLNSVTAADTAVYYCARQTPPRIIGSPNIWGQGTMVTVSS
VL: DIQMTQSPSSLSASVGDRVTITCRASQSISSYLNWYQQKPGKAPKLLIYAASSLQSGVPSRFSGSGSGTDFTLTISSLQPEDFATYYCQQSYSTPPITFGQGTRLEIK
notes: also called Parental CD40 (21519)
For the molecule B3, in experiment [4], the “IC50, 500 pM hCD40L, Ramos NFkB-luc” value was determined as 4.07e-11 M; the “Max % activation, no ligand, Ramos NFkB-luc” value amounted to 6%; the “Max % inhibition, 500 pM hCD40L” value was 88%. Besides, in experiment [5], the “IC50, 900 pM hCD40L, Raji NFkB-luc” value worked out at 4.28e-11 M; the “Max % activation, no ligand, Raji NFkB-luc” value was found to be 14%; the “Max % inhibition, 900 pM hCD40L” value came out at 90%. Moreover, in [6], the “IC50, 10 nM hCD40L, THP-1 NFkB-luc” value came out at 0.334 nM; the “Max % activation, no ligand, THP-1 NFkB-luc” value was determined as 0%; the “Max % inhibition, 10 nM hCD40L” value was determined as 98%. Also, in [7], the EC50 is 1.3 nM and the “MFI at 100 nM” value came out at 2420 MFI. Besides, in experiment [8], the EC50 turned out to be 1.2 nM and the “MFI at 100 nM” value came out at 20300 MFI. In addition, in experiment [9], a half-maximal effect (EC50) was put at 9.2 nM and the “MFI at 100 nM” value worked out at 11800 MFI. In experiment [10], the “% Blocking at 1 uM mAb” value came to 94% and the IC50 was 52 nM.

B4: REGN17544 (antibody, V domains shown)
VH: EVQLVESGGGLVQPGGSLRLSCAASGFTFGSYGMAWVRQAPGKGLEWVSAISGSGDYTNYADSVKRRFTISRDNSKNTLYLQMSSLRAEDTAVYYCAKEKTGTTGYLYSGMDVWGQGTTVTVSS
VL: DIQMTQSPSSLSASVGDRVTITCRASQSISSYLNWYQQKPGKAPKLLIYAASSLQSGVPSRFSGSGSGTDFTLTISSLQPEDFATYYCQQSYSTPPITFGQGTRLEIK
notes: bivalent mAb with two Fab arms identical to the 21520 arm; also called Parental CD40 (21520)
In the case of B4, in [4], the “IC50, 500 pM hCD40L, Ramos NFkB-luc” value worked out at 1.89e-10 M; the “Max % activation, no ligand, Ramos NFkB-luc” value was determined as 10%; the “Max % inhibition, 500 pM hCD40L” value was determined as 77%. Besides, in experiment [5], the “IC50, 900 pM hCD40L, Raji NFkB-luc” value came to 1.35e-10 M; the “Max % activation, no ligand, Raji NFkB-luc” value came out at 11%; the “Max % inhibition, 900 pM hCD40L” value amounted to 81%. For the same molecule, in [6], the “IC50, 10 nM hCD40L, THP-1 NFkB-luc” value turned out to be 1.13 nM; the “Max % activation, no ligand, THP-1 NFkB-luc” value is 4%; the “Max % inhibition, 10 nM hCD40L” value was determined as 96%. Also, in [7], the EC50 amounted to 0.87 nM and the “MFI at 100 nM” value was found to be 2440 MFI. Moreover, in experiment [8], the EC50 is 0.98 nM and the “MFI at 100 nM” value was 20500 MFI. For the same molecule, in experiment [9], the EC50 was determined as 4.3 nM and the “MFI at 100 nM” value is 23200 MFI. Further, in [10], the “% Blocking at 1 uM mAb” value was found to be 91% and the IC50 was found to be 71 nM.

These data come from US20250277048A1 (Regeneron, published 2025).
